Measurements from article PMC9969015.

Biological target: integrins on T cells
Experiment: flow cytometry on cells
Settings: read off a plot

Substance | response (parent: est. 21) [MFI] | response (parent: est. 36) [MFI]
S-RBD protein with C-terminal human Fc-tag (receptor-binding domain of SARS-CoV-2 S protein) D586E | 2 | 2.5
S-RBD protein with C-terminal human Fc-tag (receptor-binding domain of SARS-CoV-2 S protein) D442E | 8 | 9
S-RBD protein with C-terminal human Fc-tag (receptor-binding domain of SARS-CoV-2 S protein) D405E | 5 | 6.5
